Source: publication doi:10.1101/343756

Columns and labels:
[1] = target: thermostabilized human ETB receptor (ETB-Y5) fused to SmBiT (human) (UniProt P24530)
[2] = target: thermostabilized human ETB receptor (ETB-Y5), construct with an internal FLAG epitope tag (human) (UniProt P24530)
[3] = target: human ETB receptor, wild type, construct with an internal FLAG epitope tag (human) (UniProt P24530)
[4] = target: human ETB receptor, wild type, fused to SmBiT (ETB-SmBiT) (human) (UniProt P24530)
[5] = target: T1, human ETA receptor (human) (UniProt P25101)
T1 sequence: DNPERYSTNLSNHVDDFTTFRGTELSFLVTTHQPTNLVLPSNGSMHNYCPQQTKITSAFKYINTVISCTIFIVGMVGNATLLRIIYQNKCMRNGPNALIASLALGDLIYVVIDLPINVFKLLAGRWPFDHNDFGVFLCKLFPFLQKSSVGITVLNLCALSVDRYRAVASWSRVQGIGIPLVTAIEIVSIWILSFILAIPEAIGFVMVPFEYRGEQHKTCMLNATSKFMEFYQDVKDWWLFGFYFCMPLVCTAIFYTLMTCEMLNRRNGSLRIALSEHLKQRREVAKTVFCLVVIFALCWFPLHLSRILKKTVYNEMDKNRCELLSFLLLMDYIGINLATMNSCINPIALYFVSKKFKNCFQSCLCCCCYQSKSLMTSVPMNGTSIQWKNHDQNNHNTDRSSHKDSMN

[6] = target: human ETB receptor L252H I254T double mutant, construct with an internal FLAG epitope tag (human) (UniProt P24530)
[7] = target: T2, human ETA receptor fused to SmBiT (ETA-SmBiT) (human) (UniProt P25101)
T2 sequence: T1 sequence

| Substance | Emax, NanoBiT β-arrestin recruitment assay, percent of that of ET-1 [1] [%] | Emax, TGFα shedding assay, percent of that of ET-1 [2] [%] | EC50, AP-TGFα release (TGFα shedding assay, G-protein activation), HEK293 cells [3] [nM] | Emax, TGFα shedding assay, percent of that of ET-1 [3] [%] | Emax, NanoBiT β-arrestin recruitment assay, percent of that of ET-1 [4] [%] | AP-TGFα release (TGFα shedding assay), no activation at the concentration tested [5] [nM] | change of EC50 against the wild type receptor, TGFα shedding assay [6] [fold] | EC50 against that of ET-1, NanoBiT β-arrestin recruitment assay [7] [fold] | EC50 against that of ET-1, TGFα shedding assay [5] [fold] |
| --- | --- | --- | --- | --- | --- | --- | --- | --- | --- |
| IRL1620 (N-Suc-[E9, A11, 15] ET-1(8-21)) (peptide) | 85 | 84 | 0.11 | 88 | 87 | > 320 | 2 | – | – |
| endothelin-3 (from UniProt P14138 97-117) (peptide) | – | – | – | – | – | – | – | 5 | 5 |
